Data taken from patent US20140303084A1 (Biogen, published 2014).
Square brackets hold non-standard residues; d marks the D form. Primed or numbered codes have the meaning given here. Side chains are listed from the residue outwards. Ends that are not written are not given here. * marks the point of attachment. Biotin = O=C1N[C@H]2[C@H](CS[C@H]2CCCCC(=O)*)N1; NMeL = CN[C@@H](CC(C)C)C(=O)O; PEG2′ = PEG2 spacer unit

B1: compound 19 (peptide)
peptide: RRAPGKLTCLASYCWLFK([PEG2′-Biotin])TGIA-NH2
modifications: not fully specified (bridges); printed as RRAPGKLTCLASYCWLFK(PEG2-Biotin)TGIA; cysteine pairing not given here
notes: also called compound 4 biotinylated at K18

Molecular target: T1, human Factor IXa (human, UniProt P00740 47-191; P00740 227-461)
Assay: cell-based or functional assay

| Binder | EC50, FXa generation assay with human FIXa [nM] |
| --- | --- |
| KLTCLASYCWLF-NH2 (not fully specified (bridges); cysteine pairing not given here) [compound 1] | 300 |

Molecular target: T2, human Factor VIIa (human, UniProt P08709 61-466)
T2 construct: Bought protein; also called hFVIIa; FVIIa
T2 sequence (looked up): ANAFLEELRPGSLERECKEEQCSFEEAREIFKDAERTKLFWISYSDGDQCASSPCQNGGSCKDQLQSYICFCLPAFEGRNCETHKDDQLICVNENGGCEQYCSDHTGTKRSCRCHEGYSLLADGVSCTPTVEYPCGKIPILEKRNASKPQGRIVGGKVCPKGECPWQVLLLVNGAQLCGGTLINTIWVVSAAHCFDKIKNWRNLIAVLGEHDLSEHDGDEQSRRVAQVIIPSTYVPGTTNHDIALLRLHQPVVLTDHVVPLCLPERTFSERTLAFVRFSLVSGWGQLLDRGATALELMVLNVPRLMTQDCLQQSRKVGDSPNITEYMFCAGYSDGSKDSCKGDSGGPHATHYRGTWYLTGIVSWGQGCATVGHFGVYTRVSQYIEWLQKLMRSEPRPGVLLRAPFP
Assay: BLI (ForteBio Octet 384), peptide on streptavidin probes, soluble hFVIIa
Experimental: (§1) Briefly, a layer of molecules attached to the tip of an optical fiber creates an interference pattern upon incident white light. The combination of the optical fiber and biocompatible surface creates the physical conditions needed for BLI, allowing the detection of changes in mass accumulation on the tip of the probe. This is measured by alterations in the spectral shift (nm). These changes are recorded as a binding profile, a continuous, real-time monitoring of the association and dissociation of interacting molecules.
(§2) Control SA probes were loaded with 4M guanidinium chloride in the absence of biotinylated peptide for reference subtraction. After loading, probes were incubated in HBS-P for 300 sec to establish a new baseline. […] This is described as the dissociation phase. The equilibrium KD was derived from the non-linear regression analysis of the subtracted data (Reaction probe minus Reference probe) using a 1:1 binding model with ForteBio software (Version 7.0).

| Binder | Kd [nM] |
| --- | --- |
| RRAPGKLQCLASYCWLFWTGIA-NH2 (cysteine pairing not given here) [compound 25] | 250 |

Molecular target: T1, human Factor IXa
Assay: BLI (ForteBio Octet 384), biotinylated peptide on streptavidin probes, soluble hFIXa 0-2000 nM, steady state, 1:1 model
Experimental: as §1, §2

| Binder | Kd [nM] |
| --- | --- |
| B1 | 120 |

Molecular target: T1, human Factor IXa
Assay: cell-based or functional assay
Remark: another data set of the same source

| Binder | EC50 [µM], FXa generation assay [µM] | EC50 [µM], FXa generation assay with hFIXa [µM] |
| --- | --- | --- |
| RFQTTQLTCLGSASCLFNLSVR | > 1 |  |
| [dK][NMeL]TCLASYCWLF-NH2 (cysteine pairing not given here) [compound 2] | < 0.5 | < 0.5 |
| GEGGGKLSCVAIQCGLFKGLGR | > 50 |  |
| SGGSGKLTCLASYCWPFGSQVR | > 50 |  |
| KLTCLASYCWLF-NH2 (not fully specified (bridges); cysteine pairing not given here) [compound 1] |  | < 0.5 |
| DAGPNKLRCLASYCQLFGGGHA | > 50 |  |
| LLHAQKLSCLASYCWVFDAEWD | < 0.5 |  |
| EGRRDKLTCLASYCWLVGHGQH | > 25 |  |
| AQLRRKLTCLASYCWLFGFFSP | > 1 |  |
| HYARVQLRCLDGYCWLLTKSRM | > 10 |  |
| SGFGMKLTCLASYCGLFQGEIG | < 0.5 |  |
| RRAPGKLQCLASYCWLFWTAIA | < 0.5 |  |
| GIQGSEVACRASFCRLFEQGHV | > 50 |  |
| SGRGGKLTCQASFCQLFGNGLS | < 0.5 |  |
| APPGGKRMCLVSGCQLFPWSAS | > 50 |  |
| VDKGHQLRCQAGYCWLLGYNRE | > 50 |  |
| RRAPGKLQCLASYCWLFWTGIA-NH2 (cysteine pairing not given here) [compound 25] |  | < 0.5 |
| GGALQQLTCPASYCWLFPMEHS | > 10 |  |
| YARDSTLTCQARTCQLVDYLGP | > 50 |  |
| QGQARKLACLASYCWLFPSSAG | > 50 |  |
| QDGVEKLTCLASYCWRFGDHGA | > 50 |  |
| RRAPGKLQCLASYCWLFWTGAA | > 1 |  |
| GFGSRKLTSLASYGWLIQDRLP | > 50 |  |
| TLLYQNRTCLASYCWLFDKRSV | > 50 |  |
| B1 |  | < 0.5 |
| LLQIPNLTCLGSYCWLDNGVYA | > 50 |  |
| QDGDGKLTCRASYCRRFLVGVH | > 50 |  |

Molecular target: T1, human Factor IXa
Assay: cell-based or functional assay
Remark: another data set of the same source

| Binder | EC50 (µM), FXa generation assay, without phospholipids [µM] |
| --- | --- |
| [dK][NMeL]TCLASYCWLF-NH2 (cysteine pairing not given here) [compound 2] | 0.2 |
| KLTCLASYCWLF-NH2 (not fully specified (bridges); cysteine pairing not given here) [compound 1] | 0.4 |
